Reference: the NTF2 design screens of Basanta et al. (2020)

Experiment: protease stability score; higher = more stable; yeast display proteolysis, trypsin and chymotrypsin;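 note: log10 excess protease needed over predicted unfolded state with 0 meaning unfolded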

Sequence	protease stability score
DEEQQKEQKKRLREMIETNNEDELQRQADKDVKVVVGDQTYHGREEARKWVHELKRRVDHVRVDRVEAHGNKISARYRASVNGETQRYNMVIHITNGRIQHMRVTEG	0.894
DEEQRKRMAEKFRNAIQRNDDDKIRELAPPDVSARYGDKEVHGREELLKYIDRLHKEADRIDVHDLHVKGETIILTLVVNINGHNHRYNFVAHIHDGRMHRMKVESR	1.21
DEEQRLKQVFDTLVKAFEDNDEDQIRDMMDPNVTVRVGDKEVHGRDEVARRVVDERRKVDHVHNDIKDYRVRGNHLVMKIDQVFNHNGETRKQTATMVVKVHDGRAVVETLHYD	1.09
DEEQRRMVQELFKALQHGDPDKVEELVDPNAQLHYGDKTVTGREEMHRWIEHLLDKIRIHFQRVSVRSRNGRAIAHATVEVVFNGKPDTVTFDLEANVHNGKFRRIVLRFPEEAQKKLKR	1.48
DEEQTLRERFNTLKRAQDHNDEEDLRRMMDENVKVRIGDEDVHGRETANEQFARMLRRVDHVRLRLKTMHVHGEKYQFRFELQLTVNGRHEHRDVRIRFDNVNGRTNIVEMEVG	0.35
DEEQVEHAMNRLVQALRSGDEKKLLDLAPEDVKMRIGDREFHGREDFEKAVKEFVDRVDHFQFEDVSIRGDDIFIHVWNQVNGRRHKQVITVKAHNGRMKHMVLDTP	0.983
DEEQVEHMRRIVQEGDFDELKDNADPNARVQVGDKRYHGREQVQHVMKNFRDKADHVEISSIKQDEDHVSAEMHVEVNGERFVIRIHFVVHNGRLEQINIQVTSERDQKKLKKMLD	0.185
DEEQVKKVLETLVKALQKGNIEEILKMLKEDVEFVLIDEKYQGREDAKKIVKQLVDQGMEVHFDRHEVTGNQAHVQTRWHYGNKEAHAEVTYYVKGDTVDKVDIQWSETAKKAVKEG	1.13
DEEQVKKVVEELLKAVHNGNVDQIKKIVKENVEFTLGDKTMKGQEDVEKDVKQLHDKGADFKVDEVEVTGDHATANTKWQIGDQKAHVQVHYQVRDDTVERVEVRWSEDAKKAIKQG	-0.141
DEEQVKKVVKVLMEYFKRGDVDQIVRMIDEDVEFKLLDEKKKGQEQVKTVIKKLHDQGAEVHVDHAEVEGDKATVDTRWHIGDHTMEATVEYYVEGDRVKKVKVQWSEEAKKALHAG	1.06
DEEQVNKVRTLVESNDEKTMQELADPNAKAEIGNKRFHGMHRAAHVLTKLRKQADTVRYREIDVHNGQVHAHFSMHFNGKRIDARVVLKVRNGRLRHMKIEATDPHLEEELERQVQ	0.268
DEEQVQKVVDKLIKAVQNGNRKQIVDLVKENVEFTLADETYKGKDDVQTVIKRLHEVGAEVHVDRYDVRGDTAHADTRWHMDDQEMHVTVEYVVRGDRVEQVHVQWSEEAKKVHKKG	-0.044
DEEQVREAMEIVKHGDPDKFRKQADKDVRLTIGDTEYHGREDVMTVLVSFLRTVDHLNIKSVDVRGDKAVINADFNYNGKEININIHLEFHNGRLKSVQIQATNREDQKDLKRIIK	1.28
DEEQVRKMLETILKMMVNGNLEEVKKVLKPNVDYQLGDEKLQGQQVAERADKYIKKVGVRAEIKRAKVEGDTAELDYEFTADGRTVRVTVQAHAKDGRLDQWRVEVSDTAKKIRQKG	0.736
DEEQVRKVVEQLLKMLQNKNTEEIVKLVKEDATFTLGDETRRGQEDVRKLVQRLKEQGAEFHTHEVRVKGGEAKAKTQWHVANREVHAEVKYVVRGDKVEKVEVRWSEEAKKALKEG	-0.071
DEEQVTKAKNLLENWKTNNPEEVKKLADPNARAQIGDQVIHGMDKYVTFLHKQRSKMRFELHIRSMTADNGRVKMTFDHVVDHNGRPDKNDARMSVQFENGKIKELVIQKDK	-0.295
DEERAAHNALRALEAMLTGDEKKADELADKDVRVNVGDRVYDGDEKMQKFVRELRKRYDHFHFRTYSHDGDKVKANVILNVNGRNVEIIFYLHAHNGKLKSVRVEVRNPELLKNLTS	1.23
DEERADELVELLTNNNFQSLADNADPNASIEYGDKTIRGRDEANKFLQNIERRADHVEIKSLKTKGNKIDIDLVVHVNGQKLRFKVEIKLRNGKVTHIRIQATSERDQRKFLEVVG	1.06
DEERAKQLMEKAFKMIRNGNEEVVRKMLKPNGRYEYIDKKFEGEEAAKFVVQLVQKVGAEDKVKRKEVKGDTAKMDFDYHKGDKTVRTTAEVIYKGDKMEQARVELTDEVKKIVHQG	0.046
DEERAKQVADKVFKYAINGDEEKMQKQLDPNVEYKYADTEYEGEDAARAIVRLVKQVGMEVKTQRQEVKGNTMQADFRYHNGDKEVQTTARVEYEGDKVKKVEVKVTDEVKKEAHKG	-0.068
DEERAMKDAVDRMEKNVKNGNFDKMMNLADKDAKVVVGDDTYRGRDNNVKKNKEDKEEFDHAEVRFKEVEVENGRISIHADITLNVNGQDVTRRFNFELRNHNGTALIVRLTLK	0.188
DEERAQHLVDQIFRAFKRGDPEQFKKMFDPNARMHVGDQRYHGREDIIKFLQEIREQADTITLRKVTVHNGQADIIVDVQVDGRRVRIQILINYHNGKVKSLKIHYTDEELQKEIES	1.56
DEERDERVATKVAEAMATGDPEKVMEQAPPNAEMRIGDKHFTGEEHIKQALLEWKRDADHIQVDHVSVQNGRAHMDMQFTINGRKRRYTLRVEVHNGKAKTVSVREP	0.315
DEERDLDIAVEAAKNLLTGNEERFSKMAPPDVRIEYGDKTVHGREQANTAVKEFRDRVDHIEIKRIEKDGNKAHIEFIANVNGHRFTVTMVVDVSNGRVNQVDIRARNKEDQEKMKG	0.06
DEEREAKEWMELFEDQFRQGNEHEVNKLMDKDARIHVGEKHVSGRNQAKKELKEHMKRADHIHIQLHEVDSRPGRMILDFTINQQVNGRRSSDKVRARFSKRNGRWYQESETQG	0.104

Sequence	protease stability score
DEEREEQARKLLRAEEQGDPDRAKQMMDPNARVQVGNKRVHGRSEIATQLEKRKRRARYEIKHVTIRARGNRVDVKINVQVVVNGRPHHFTYIMHLTFQGDKAKNATVRIDEDTLRQVDS	0.171
DEEREKEFATRIATALRTNDPKKMVKNFDENAKFDVGDNRIKGREELKEWVDELHKEFDHIEIHDVQAHNGRAKINLKLEHNGRDTVLDATVVVENGRAKSAKQDQS	-0.448
DEERELEELMQRLISLMKNGNPKEVAKLLDPNVRVQYGDKRLHGREQAIRRIESLRRHVDHVTMSIESLQVEGDKVSARIEAVYDVNGTQDQRTIELELRQVNGKLRFKHITFK	0.017
DEEREVKKRIKHIIRVLENGDEDRAEELADPNTTARVGDKRVHGMNNYMRELARKARRADHVEVTIKHMDLNGEKFDIRLHIVIHVDGRREKFDLRFVITRQGDKHVAVDVQVS	1.47
DEERKAEEMAKSIIKVWQSGDHHQQQRNADEDVRFEIGDKRINGDHQLEDWVKKIKEQYDHIEVRIKSVTRQGDKLVVIAQVVYNENGHRRQVTVRFVAVDHNGTIVLKRAIYR	0.406
DEERKEQLLEIYKAIDTGNPEKVKELADPNAHVQYGDKSVHGMDDAVRQLEKRRKEIRIHWDVKSVHVEGNKVDVVAENEEEHNGHPRSHTVRVNAEFQGDKMKNAHYQSDK	-0.202
DEERKKQAEHFMRVYQQGNEEELNKLMDPNVKANVGDKEWQGREKMAKDTREKLEHSKLQLHSVSVDAQGNNIRIDVSFVVNHNGEPRRNHQTIIIHIDNGRITRLEVKDTS	0.004
DEERKKRVEEALRQEQQGNEEDYSELMDENVKITIGDKTIRGSKEAVRHFKEKMTQMRIELRDYRIQVHGNKVSVDLKYVNDHDGQPRHQKATATMDMTNGRVQSREVDNKP	0.186
DEERLAKEVNDQYQHIMDTGDPDQARKLFDENARVDIGDKQYHGREEAVEAFQQRMNRVDHIDIKIDEVKVRNGEIDVKFEINQNSNGKNVHRNIRFTMRVNGDKYAIVDMHVQ	0.367
DEERLQKIIEKAFKVIQNGNKEEAQKLGKPNVEYHYLDKTLHGPKAVEHAVEHVKKVGAEVKQQEIEVHGGTAKAVFQYHVGDKTVQTTAEVTYEGDKMKKARVKISEEVKKMMHRG	-0.076
DEERMHQLEKLFRTNNFEEFAKQADKDVTAKVGNETYTGREDMEKFARRLREQVDSIHYDRVEVKGDKFKADAQFDFNGKRVRFTVEVEFHNGKLQHMRMQATTHELEETLAKLLS	1.41
DEERMHRLKKLFDTNDNEQMSKQASENARMQVGNKVFHGREDIEKFILEERRRADHITYKHVTEHGNKVQAHVVKVVNGRSIDVIFEVEIDNGRIKRMSIQARDSEDQNKAEKALS	0.345
DEERMLKVAETVIRAVRNGNADKAVKYIDEGGEATFGDTKLKGPEHIYEYVKKFKDQGIEVHYKEEHKEGDKVTVHTQAHLGDATADFEVHYQVKGDKLDRMEVRMDKEQLKKFRDS	-0.347
DEERNEKAAHEMLKVFQRGDPDQFRDLIDPNARANVGDKKYHGRENLTHMFKHFVHRADHLEMQHVKVSGETVEIHIRAKINGKTIDFTIRIIVDNGKAREINFDPDMLKRMRG	1.23
DEERNELAEHVVKAWHHNDPDRVQKLVDPNVRFEIGDKEVHGREEYARIQRTEKDQWDLQIEVKHITVHNGRVDVDFDWRIERDGRPRTNQQVVIFEVDNGKVKRVSFQERK	-0.279
DEERNERHAQDLMRALENNDEERLRQLLDKDAKLNVGDHEIHGSENIVKRLAEFLKRADHLRFERMTVRGDTVQISFEVEHDGERRKYEVHITVHNGHVQSITIQKQ	2.49
DEERNKEMKEVLETNDFKDLANQADENAKAQIGDKEYHGREEVRDAMKSLQERIDSVEVRDIHVQGDKFSIEAVMDVDGDKVDVVIEMRVHNGNIKFVRINARNESVKEKVEQVVS	1.79
DEERQDQAEEFWKILQTGDPDKAREELRDDVHVHVGDKVIHGMEDVDRDIERVRKQIRVEFDVRHIDSQGERISVEANIMENENGKPETAQLTVIIDMHNGRVVRIVFEKRK	1.96
DEERQHRVAKSLVDILKDGNPRKMKELMDKDATVRVGDKNIRGRKNIATFWTDVRRRIDHVEIKHVDVRGDKIDMNINFDVNGRHVHYTINARVRNGKLTSMHLDPDNLEHLKE	0.591
DEERQKEALKVHKKGDFDKILDQADEDVQVVIGDKKYHGREEATTALKKILDSIDHLKFESITIQNGRVRVDAILEFNGQQNRVIIVVEVHNGKVKKVEIRVTDPSQEDKLKKRVD	-0.203
DEERQQKVADDLATIMTNGNPDQMLELADKDVKAKYGDTEIHGREKVREYWKTIRDQADHIHIDTFKAENGQVDIQAHAKFNGKDYKFNLRIEFDNGRIKSIVVQEQ	0.278
DEERRDLAHRIFEAWKRNDPDTLRNLIDPNAKMVVGEDVLRGDEQIVKHVQDVHNRINMKIDIKSVRVEGDKVIVHAEVTANVNGRPVRIEVTFVIKNHNGKVKKIVIDVDPRDQRKMDS	-0.13
DEERRKNLAREYNKALTSGDENKVRRLADENVRIEIGDHVVSGRENLSKLVRDDQERVDRFRVQDVHVEGDKIQFDIQVEINGKTINITIEMQLHNGRIKKIKFDPRAVEQLKG	0.612
DEERSAHKFLKDMEKLMRTGDFQEVAKLFDKHAKVEVGDKRVHGREQIIRTNQQWEKRVDSVDLKIQHVSVKGEDVDVHYNMVLRYNGRNDNRVYRFVATVHGDKVRITHMELE	0.348
DEERSNLVESVFRALEHNDEKRLNELFDPNVNVQIGDDKIRGREELVKFMRTLKRQMRIRYRTMDLHVQGDKVVVRATFEVNVNGTPHNVTMEFHAEVHNGKFKHARIKIPEEKLKTMQS	1.57
